Legend:
[1] = substrate: O=c1ccn([C@H]2C[C@H](O)[C@@H](COP(=O)(O)OP(=O)(O)OP(=O)(O)O)O2)c(=O)[nH]1; test: stopped-flow absorbance, proton release with cresol red; assay type: biochemical, Dictyostelium discoideum; settings: enzyme 0.15 µM
Description: stopped-flow absorbance, proton release with cresol red on core D. discoideum dUTPase

[2] = substrate: O=c1ccn([C@H]2C[C@H](O)[C@@H](COP(=O)(O)OP(=O)(O)OP(=O)(O)O)O2)c(=O)[nH]1; test: as above; assay type: biochemical, Dictyostelium discoideum; settings: enzyme 0.15 µM; remark: listed apart in the source
Description: stopped-flow absorbance, proton release with cresol red on full-length D. discoideum dUTPase

| Protein | Km [1] [µM] | Vmax [1] [µM/min] | kcat [1] [s⁻¹] | kcat/Km [1] [M⁻¹ s⁻¹] | Km [2] [µM] | Vmax [2] [µM/min] |
| --- | --- | --- | --- | --- | --- | --- |
| core D. discoideum dUTPase (Dictyostelium discoideum) (protein, core lacking residues 1-37, N-terminal GSHM from cloning, E. coli, His-tag removed, homotrimer) FKVKKLSDKAIIPQRGSKGAAGYDLSSAHELVVPAHGKALAMTDLQIAIPDGTYGRIAPRSGLAWKNFIDCGAGVIDSDYRGNVGVVLFNHSDVDFKVAVGDRVAQLIFERIVTPEPLEVDEIDETQRGAGGFGSTGVKVQN | 0.5 ± 0.1 | 84 | 9.3 | 1.86e+07 | – | – |
| full-length D. discoideum dUTPase (Dictyostelium discoideum) (protein) MPIEQKYFSLFSNLFKRLTTNNNNNNYLKMAPPNFETFKVKKLSDKAIIPQRGSKGAAGYDLSSAHELVVPAHGKALAMTDLQIAIPDGTYGRIAPRSGLAWKNFIDCGAGVIDSDYRGNVGVVLFNHSDVDFKVAVGDRVAQLIFERIVTPEPLEVDEIDETQRGAGGFGSTGVKVQN | – | – | – | – | 1.0 ± 0.2 | 30 |
